Series [1] deals with H3.3/H4 (Homo sapiens (H3.3); Xenopus laevis (H4)) (UniProt P84243+P62799). Nature of the series: competition. The settings on record: 20 mM HEPES pH 7.5, 150 mM NaCl, 0.5 mM TCEP, 0.001% Tween-20, 1 mg/ml BSA; 10 nM probe; temperature not stated.
Series [2] deals with HIRA-WB/UBN1-NM/H3.3/H4 complex (human | X. laevis) (UniProt P54198). The experiment in a line: AUC; sedimentation velocity of the HIRA-WB/UBN1-NM/H3.3/H4 SEC peak at three loading concentrations, 4 °C, 20 mM HEPES pH 6.95, 500 mM NaCl, 0.5 mM TCEP; global fit in Sedphat to monomer-dimer self-association: 2:2:2:2 assembly to 1:1:1:1 assemblies.
The target of series [3] is ASF1a-C labelled with Alexa Fluor 488 (human) (UniProt Q9Y294). The experiment in a line: fluorescence polarisation; direct binding: protein titrated into 10 nM fluorescently labelled ASF1a-C probe; 20 mM HEPES pH 7.5, 150 mM NaCl, 0.5 mM TCEP, 0.001% Tween-20, 1 mg/ml BSA; one-site total binding model. A general note: Fluorescence polarisation rises when a labelled molecule tumbles more slowly, as on binding a larger partner.

In series [4] the target is H3.3/H4 (Homo sapiens) (UniProt P84243). As to conditions: cited from earlier work.
In series [5] the target is H3.3/H4 heterodimer (human | X. laevis) (UniProt P84243). The experiment in a line: AUC; sedimentation equilibrium of H3.3/H4 alone, 4 °C, three loading concentrations, 15,000, 25,000 and 30,000 rpm, 20 mM HEPES pH 7.5, 100 mM NaCl, 100 mM KCl, 2 mM MgCl2, 1 mM EDTA, 0.05% Brij-35; monomer-dimer model: (H3.3/H4)2 tetramer to H3.3/H4 heterodimers.
Series [6] concerns the target HIRA-WB/UBN1-NM complex (human) (UniProt P54198). Nature of the series: AUC; sedimentation velocity of the HIRA-WB/UBN1-NM/H3.3/H4 SEC peak at three loading concentrations, 4 °C, 20 mM HEPES pH 6.95, 500 mM NaCl, 0.5 mM TCEP; global fit in Sedphat to monomer-dimer self-association: 2:2:2:2 assembly to 1:1:1:1 assemblies.
Series [7] has as its target ASF1a-C labelled with fluorescein-5-maleimide (human) (UniProt Q9Y294). The experiment in a line: fluorescence polarisation; direct binding: protein titrated into 10 nM fluorescently labelled ASF1a-C probe; 20 mM HEPES pH 7.5, 150 mM NaCl, 0.5 mM TCEP, 0.001% Tween-20, 1 mg/ml BSA; one-site total binding model.
The target of series [8] is H3/H4 (Homo sapiens) (UniProt P84243). The settings on record: cited from earlier work.

A word on the Ki: it is a measure of affinity in units of concentration, obtained from inhibition or displacement. Low values mean higher affinity, high ones lower affinity. As a reminder, the Kd is the constant that tells how readily two partners part at equilibrium. What is called stoichiometry N is the number of molecules, sites or subunits per partner or assembly.

ASF1a-C labelled with Alexa Fluor 488 (human), sequence (Q9Y294 1-156): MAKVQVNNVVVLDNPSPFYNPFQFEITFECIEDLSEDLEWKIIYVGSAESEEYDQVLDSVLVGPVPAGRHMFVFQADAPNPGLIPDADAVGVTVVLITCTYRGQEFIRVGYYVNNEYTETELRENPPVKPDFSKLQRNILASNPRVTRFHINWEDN
ASF1a-C labelled with fluorescein-5-maleimide (human), sequence (Q9Y294 1-156): as above
ASF1a, sequence (Q9Y294 whole entry): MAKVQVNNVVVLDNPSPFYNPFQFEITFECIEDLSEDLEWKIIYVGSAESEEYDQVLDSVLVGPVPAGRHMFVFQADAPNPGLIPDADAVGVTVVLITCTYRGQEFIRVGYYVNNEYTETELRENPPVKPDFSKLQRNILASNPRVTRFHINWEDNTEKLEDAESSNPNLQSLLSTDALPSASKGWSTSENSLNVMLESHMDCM

60 bp dsDNA competitor: the Ki in series [1] came out at 280 nM.
For the substance “HIRA-WB/UBN1-NM/H3.3/H4 complex (from UniProt P54198 1-473; Q9NPG3 1-584; P84243 1-136; P62799 1-103)”, in series [2], the Kd was 6000 nM and the stoichiometry N is 2.
Turning to “HIRA-WB/UBN1-NM/H3.3/H4 complex (from UniProt P54198 1-473; Q9NPG3 1-584; P84243 1-136; P62799 1-103) (complex; other documents disagree on this pair)”, in series [3], the Kd was 1000 nM.
On to UBN1 (from UniProt Q9NPG3), for which the Kd in series [4] is 7000 nM.
In series [5], “H3.3/H4 heterodimer (from UniProt P84243 1-136; P62799 1-103) (complex)” gave a Kd of 6000 nM and a stoichiometry N of 2. Besides, in series [6], the stoichiometry N worked out at 1.
As for “H3.3/H4 heterodimer (from UniProt P84243 1-136; P62799 1-103) (complex; other documents disagree on this pair)”, the Kd in series [7] amounted to 280 nM.
ASF1a (from UniProt Q9Y294): in series [8], the dissociation constant (Kd) was 2.5 nM.

These data come from article PMC11388340.
